Reference: publication doi:10.1101/2024.12.03.626679, “Structure of the SMYD2-PARP1 Complex Reveals Both Productive and Allosteric Modes of Peptide Binding” (bioRxiv, 2024)

Tests used:
[1] = target: T1, Full-length human SMYD2 (residues 1-433), wild type (human, UniProt Q9NRG4 1-433); assay: ITC; NanoITC SV, 27°C, 25 mM Tris pH 7.5, 50 mM NaCl; 40 μM SMYD2 in the cell, 631 μM PARP1 peptide in the syringe, 16 injections of 15 μL; one-site, two-site and binding polynomial models; conditions: both partners purified
T1 construct: SMYD2, human, full length, residues 1-433; Tag cut off with yeast SUMO Protease 1, native N-terminus; Crystals held AdoHcy; also called SMYD2-WT; wild-type SMYD2; not shown: 6xHis-SUMO, N-terminal, cleaved

SMYD2-L351A/W356A = SMYD2-L351A/W356A (human, UniProt Q9NRG4 1-433, L351A | W356A); assay: cell-based or functional assay
Sequence of SMYD2-L351A/W356A (Q9NRG4 whole entry L351A/W356A): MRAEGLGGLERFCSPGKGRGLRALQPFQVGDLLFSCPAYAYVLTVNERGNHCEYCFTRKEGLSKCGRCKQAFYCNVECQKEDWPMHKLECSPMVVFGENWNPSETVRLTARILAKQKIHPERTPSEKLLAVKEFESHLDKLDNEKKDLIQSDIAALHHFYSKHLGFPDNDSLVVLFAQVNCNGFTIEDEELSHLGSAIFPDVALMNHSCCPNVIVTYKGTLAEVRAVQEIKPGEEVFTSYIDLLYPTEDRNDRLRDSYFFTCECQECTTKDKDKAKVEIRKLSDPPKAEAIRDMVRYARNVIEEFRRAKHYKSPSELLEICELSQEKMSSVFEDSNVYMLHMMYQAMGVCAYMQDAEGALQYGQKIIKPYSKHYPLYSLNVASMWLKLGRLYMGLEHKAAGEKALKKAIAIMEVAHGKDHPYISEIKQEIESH

T1 sequence (Q9NRG4 whole entry, the tested form may be a part): as the sequence (Q9NRG4 whole entry L351A/W356A) above, with A351L, A356W counted along it

B1: PARP1 peptide (13-residue synthetic peptide, human PARP1 residues 522-534) (peptide)
peptide: RMKLTLKGGAAVD
notes: PARP1, human, residues 522-534, holds the target lysine Lys528; also called Lys528-containing PARP1 peptide; source: synthetic peptide (CPC Scientific)
dH1 (binding polynomial) [1]: -1 kcal/mol
dH2 (binding polynomial) [1]: -1.72 kcal/mol
stoichiometry N [1]: 2
KM of steady-state methyltransferase kinetics (MTase-Glo) with the PARP1 peptide as substrate, against wild-type SMYD2 (SMYD2-L351A/W356A): 4 fold
